Paper PMC9046087, “Structural basis of tethered agonism of the adhesion GPCRs ADGRD1 and ADGRF1” (Nature, 2022)
Numbering of substitutions follows the chain as printed. Values belong to the molecule of their own block, whether it stands above or below them. Ends that are not written are not given here.

How the values were obtained:
[1] = target: T1, ADGRF1 (Homo sapiens, UniProt Q5T601); assay: BRET assay using TRUPATH biosensors, Gi activation of ADGRF1; assay type: cell-based; conditions: ADGRF1 WT; for Emax (mean ± s.e.m.): n = 3; for EC50: n = 3, read-out: pEC50 (mean ± s.e.m.) (converted)
T1 construct: Flag (N); expressed in transfected cells; host or cells: HEK293F
T1 sequence (Q5T601 20-910): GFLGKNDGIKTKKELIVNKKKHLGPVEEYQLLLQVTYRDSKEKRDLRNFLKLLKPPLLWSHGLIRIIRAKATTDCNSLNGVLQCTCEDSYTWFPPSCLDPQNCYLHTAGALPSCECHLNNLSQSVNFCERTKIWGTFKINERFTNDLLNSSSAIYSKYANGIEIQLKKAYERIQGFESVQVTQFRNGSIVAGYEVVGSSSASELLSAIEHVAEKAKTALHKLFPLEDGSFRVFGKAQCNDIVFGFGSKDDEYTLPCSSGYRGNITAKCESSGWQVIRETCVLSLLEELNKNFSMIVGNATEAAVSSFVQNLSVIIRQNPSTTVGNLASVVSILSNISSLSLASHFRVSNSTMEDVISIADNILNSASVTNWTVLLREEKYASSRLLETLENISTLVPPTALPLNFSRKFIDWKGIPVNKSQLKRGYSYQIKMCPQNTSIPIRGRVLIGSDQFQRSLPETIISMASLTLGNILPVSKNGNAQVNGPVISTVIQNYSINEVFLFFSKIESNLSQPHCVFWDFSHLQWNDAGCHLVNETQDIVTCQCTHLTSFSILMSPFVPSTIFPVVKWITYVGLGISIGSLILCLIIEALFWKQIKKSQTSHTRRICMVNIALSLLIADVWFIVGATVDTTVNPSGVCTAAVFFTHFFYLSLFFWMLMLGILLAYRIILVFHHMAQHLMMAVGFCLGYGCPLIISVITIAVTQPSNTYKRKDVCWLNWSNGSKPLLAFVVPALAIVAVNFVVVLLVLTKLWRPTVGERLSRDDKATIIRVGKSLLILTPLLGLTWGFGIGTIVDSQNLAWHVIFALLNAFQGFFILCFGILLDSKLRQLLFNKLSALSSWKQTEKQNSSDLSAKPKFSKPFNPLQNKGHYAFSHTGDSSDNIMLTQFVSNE
Description: (§1) To study the synthetic stalk peptide-induced G protein activation of ADGRD1 and ADGRF1, a BRET assay using TRUPATH biosensors was conducted to measure the proximal interaction between RLuc8 fused to the Gα subunit and GFP2 fused to the Gγ subunit. The TRUPATH suite of biosensors was obtained from Addgene (Addgene kit no. 1000000163) as a gift from B. Roth, including GαsS-RLuc8, Gαi1-RLuc8, Gβ3 and Gγ9-GFP2 as previously described.
(§2) The wild-type or mutant ADGRD1 and ADGRF1 were transiently co-transfected with plasmids encoding Gα-RLuc8 (GαsS-RLuc8 for Gs activation assay; Gαi1-RLuc8 for Gi activation assay), Gβ3 and Gγ9-GFP2 at a ratio of 2:1:1:1 (receptor plasmid, 800 ng; G protein subunit plasmids, 400 ng for each) in 2 ml HEK293F cells at a density of 1.2 × 10^6 cells per ml. Cell cultivation and receptor surface expression measurement were performed as described above. The cells were plated into 96-well white plates (40,000 cells per well) in 60 μl of assay buffer and incubated at 37 °C for 30 min. Then 10 μl of freshly prepared 50 μM coelenterazine 400a (Nanolight Technologies) was added. […] The cells were stimulated with 30 μl of synthetic stalk peptide at different concentrations and the BRET signals were monitored continuously five times. The last measurements were used in data analysis. The BRET ratios were calculated as the ratio of the GFP2 emission to RLuc8 emission.

[2] = target: T2, ADGRD1 (Homo sapiens, UniProt Q6QNK2); assay: BRET assay using TRUPATH biosensors, G protein activation of ADGRD1; assay type: cell-based; conditions: Gs, ADGRD1 WT, n = 3; for EC50: read-out: pEC50 (mean ± s.e.m.) (converted)
T2 construct: Flag (N); expressed in transfected cells; host or cells: HEK293F
T2 sequence (Q6QNK2 26-874): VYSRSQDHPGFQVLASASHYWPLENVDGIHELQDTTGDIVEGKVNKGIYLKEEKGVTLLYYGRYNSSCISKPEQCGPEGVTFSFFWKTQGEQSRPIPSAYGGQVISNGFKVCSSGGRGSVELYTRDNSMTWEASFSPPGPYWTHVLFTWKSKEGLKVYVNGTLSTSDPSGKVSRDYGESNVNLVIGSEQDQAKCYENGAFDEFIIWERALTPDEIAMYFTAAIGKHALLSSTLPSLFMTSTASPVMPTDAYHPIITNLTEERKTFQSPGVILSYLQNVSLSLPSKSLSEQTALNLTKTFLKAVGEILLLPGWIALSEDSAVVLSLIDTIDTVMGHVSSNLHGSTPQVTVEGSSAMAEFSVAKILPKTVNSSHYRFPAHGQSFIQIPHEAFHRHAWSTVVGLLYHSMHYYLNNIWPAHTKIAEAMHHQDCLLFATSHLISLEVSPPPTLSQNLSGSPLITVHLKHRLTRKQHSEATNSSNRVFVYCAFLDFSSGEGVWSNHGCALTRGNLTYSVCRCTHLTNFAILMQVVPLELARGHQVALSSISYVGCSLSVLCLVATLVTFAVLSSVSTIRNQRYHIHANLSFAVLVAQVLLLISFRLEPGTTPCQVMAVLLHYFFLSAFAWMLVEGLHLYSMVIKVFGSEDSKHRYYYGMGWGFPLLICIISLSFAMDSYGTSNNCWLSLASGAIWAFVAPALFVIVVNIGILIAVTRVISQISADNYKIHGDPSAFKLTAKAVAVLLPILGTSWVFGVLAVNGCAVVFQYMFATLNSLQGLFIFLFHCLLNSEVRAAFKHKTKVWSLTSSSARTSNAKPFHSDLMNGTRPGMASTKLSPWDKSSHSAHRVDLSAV
Description: as §1, §2

[3] = system: ADGRF1; assay: Cell-surface expression by flow cytometry, ADGRF1; assay type: cell-based, human; conditions: anti-Flag antibody, three independent measurements in duplicate
Description: The wild-type ADGRD1 and ADGRF1 and mutants used in functional studies were constructed into a pTT5 vector with a Flag tag at the N terminus for receptor expression measurement. The basal activity of ADGRD1 and ADGRF1 in mediating Gs signalling was measured by a cAMP accumulation assay using a LANCE Ultra cAMP detection kit (PerkinElmer) following the manufacturer’s instruction. In brief, 2 ml HEK293F cells (Invitrogen; cells were routinely tested for mycoplasma contamination) at a density of 1.2 × 10^6 cells per ml were transiently transfected with 2,000 ng plasmid of the wild-type or mutant receptor and cultured at 37 °C for 48 h with 5% CO2 atmosphere in a shaker shaking at 220 rpm. After collection, the cell-surface expression of the receptors was measured by incubating 10 μl cells with 15 μl monoclonal anti-Flag M2-FITC antibody (Sigma; 1:120 diluted in TBS supplemented with 4% BSA and 20% viability staining solution 7-AAD (Invitrogen)) at 4 °C for 20 min. After incubation, 175 μl TBS buffer was added and the fluorescent signal was measured using a flow cytometry reader (Guava easyCyte HT, Millipore).

[4] = ADGRF1 constructs (pF1 Gi part of table)

- Emax (mean ± s.e.m.) [1]: 87 ± 11 % of WT
- EC50 [1]: 501 nM
Molecule: TSFSILASPFVP [pF1 (M573^S7A)]

- Emax (mean ± s.e.m.) [1]: 82 ± 8 % of WT
- EC50 [1]: 132 nM
Molecule: CC[C@H](C)[C@H](NC(=O)[C@H](C)NC(=O)[C@H](Cc1ccccc1)NC(=O)[C@H](CC(N)=O)NC(=O)[C@@H](N)[C@@H](C)O)C(=O)N[C@@H](CC(C)C)C(=O)N[C@@H](CCSC)C(=O)N[C@@H](CCC(N)=O)C(=O)N[C@H](C(=O)N[C@H](C(=O)N1CCC[C@H]1C(=O)N[C@@H](CC(C)C)C(=O)N[C@@H](CCC(=O)O)C(=O)O)C(C)C)C(C)C [pD1]

- Emax (mean ± s.e.m.) [2]: 79 ± 10 % of WT
- EC50 [2]: 263 nM
Molecule: TNFAILAQVVPLE [pD1 (M551^S7A)]

- Emax (mean ± s.e.m.) [1]: 101 ± 12 % of WT
- EC50 [1]: 676 nM
Molecule: TSFSIAMSPFVP [pF1 (L572^S6A)]

- Emax (mean ± s.e.m.) [1]: 108 ± 7 % of WT
- EC50 [1]: 380 nM
Molecule: TSASILMSPFVP [pF1 (F569^S3A)]

- Emax (mean ± s.e.m.) [2]: 69 ± 13 % of WT
- EC50 [2]: 724 nM
Molecule: TNAAILMQVVPLE [pD1 (F547^S3A)]

- Emax (mean ± s.e.m.) [2]: 53 ± 5 % of WT
- EC50 [2]: 166 nM
Molecule: TNFAIAMQVVPLE [pD1 (L550^S6A)]

B1: V585^1.36bA (protein, UniProt Q5T601 20-910, looked up, variant V585A)
Adhesion G-protein coupled …: T1 sequence (Q5T601 20-910) with V566A
- Cell-surface expression (% of WT) [3, 4]: 91 ± 21 % of WT

B2: N827^7.46bA (protein, UniProt Q5T601 20-910, looked up, variant N827A)
Adhesion G-protein coupled …: T1 sequence (Q5T601 20-910) with N808A
- Cell-surface expression (% of WT) [3, 4]: 97 ± 21 % of WT

B3: G702^4.45bY (protein, UniProt Q5T601 20-910, looked up, variant G702Y)
Adhesion G-protein coupled …: T1 sequence (Q5T601 20-910) with G683Y
- Cell-surface expression (% of WT) [3, 4]: 87 ± 12 % of WT
- Cell-surface expression (% of WT) ([3]; ADGRF1 constructs, in parallel to A8-induced Gi activation): 94 ± 1 % of WT
- Cell-surface expression (% of WT) ([3]; ADGRF1 constructs, in parallel to A8-induced Gs activation): 104 ± 2 % of WT

B4: M675^3.47bA (protein, UniProt Q5T601 20-910, looked up, variant M675A)
Adhesion G-protein coupled …: T1 sequence (Q5T601 20-910) with M656A
- Cell-surface expression (% of WT) [3, 4]: 107 ± 2 % of WT

B5: H820^7.39bA (protein, UniProt Q5T601 20-910, looked up, variant H820A)
Adhesion G-protein coupled …: T1 sequence (Q5T601 20-910) with H801A
- Cell-surface expression (% of WT) [3, 4]: 77 ± 1 % of WT

B6: F641^2.64bA (protein, UniProt Q5T601 20-910, looked up, variant F641A)
Adhesion G-protein coupled …: T1 sequence (Q5T601 20-910) with F622A
- Cell-surface expression (% of WT) [3, 4]: 82 ± 19 % of WT

B7: W804^6.53bA (protein, UniProt Q5T601 20-910, looked up, variant W804A)
Adhesion G-protein coupled …: T1 sequence (Q5T601 20-910) with W785A
- Cell-surface expression (% of WT) [3, 4]: 93 ± 4 % of WT

B8: L593^1.47bA (protein, UniProt Q5T601 20-910, looked up, variant L593A)
Adhesion G-protein coupled …: T1 sequence (Q5T601 20-910) with L574A
- Cell-surface expression (% of WT) [3, 4]: 90 ± 6 % of WT

B9: W734^ECL2A (protein, UniProt Q5T601 20-910, looked up, variant W734A)
Adhesion G-protein coupled …: T1 sequence (Q5T601 20-910) with W715A
- Cell-surface expression (% of WT) [3, 4]: 87 ± 1 % of WT

B10: T589^1.40bA (protein, UniProt Q5T601 20-910, looked up, variant T589A)
Adhesion G-protein coupled …: T1 sequence (Q5T601 20-910) with T570A
- Cell-surface expression (% of WT) [3, 4]: 83 ± 3 % of WT

B11: V689^ICL2A (protein, UniProt Q5T601 20-910, looked up, variant V689A)
Adhesion G-protein coupled …: T1 sequence (Q5T601 20-910) with V670A
- Cell-surface expression (% of WT) [3, 4]: 112 ± 3 % of WT
- Cell-surface expression (% of WT) ([3]; ADGRF1 constructs, in parallel to pF1-induced Gs activation): 114 ± 10 % of WT

B12: Y668^3.40bA (protein, UniProt Q5T601 20-910, looked up, variant Y668A)
Adhesion G-protein coupled …: T1 sequence (Q5T601 20-910) with Y649A
- Cell-surface expression (% of WT) [3, 4]: 67 ± 1 % of WT
